Reference: patent publication US20260115279A1 (VIB VZW, published 2026)
Substitutions are numbered along the chain they refer to. Numbers in names are those of the source.

B1: SlyB, native (endogenous) lipoprotein of E. coli (other)
chain: CVNNDTLSGDVYTASEAKQVQNVSYGTIVNVRPVQIQGGDDSNVIGAIGGAVLGGFLGNTVGGGTGRSLATAAGAVAGGVAGQGVQSAMNKTQGVELEIRKDDGNTIMVVQKQGNTRFSPGQRVVLASNGSQVTVSPR
modifications: N-terminal Cys18 carries the lipid anchor
B2: SlyB^PL, SlyB mutant I65A/V69A/F73A with disrupted outer leaflet phospholipid binding site (other)
chain: B1 chain with I48A, V52A, F56A
notes: whole, on cells; Tested in whole cell lysates and membrane fractions

Columns and labels:
[1] = target: BamA, E. coli, untagged (endogenous, or co-expressed from pSlyB-BamA with its native signal peptide) (E. coli, UniProt P0A940 21-810); assay: cell-based or functional assay
[2] = target: the molecule itself; assay: α-SlyB Western of semi-native PAGE of whole cell lysate, with or without 1 mM EDTA

Row | Protein | cellular thermal shift assay (CETSA) on cells treated with EDTA: melting temperature of BamA in ΔslyB mutant versus WT cells [1] | binding result [2]
1 | B1 | ~4 °C | –
2 | B2 | – | no binding
